Patent US20250197511A1 (HORIZON THERAPEUTICS IRELAND DAC, published 2025)
Residue numbers refer to the chain shown, from its start. In names and notes the source's numbering stands. One block for each binder: values may come before it.

Molecular target: IGF-1R on NCI-H322 cells (UniProt P08069 31-1367, limits assumed)
Assay: cell-based or functional assay

Sequence of IGF-1R on NCI-H322 cells (P08069 31-1367 limits assumed): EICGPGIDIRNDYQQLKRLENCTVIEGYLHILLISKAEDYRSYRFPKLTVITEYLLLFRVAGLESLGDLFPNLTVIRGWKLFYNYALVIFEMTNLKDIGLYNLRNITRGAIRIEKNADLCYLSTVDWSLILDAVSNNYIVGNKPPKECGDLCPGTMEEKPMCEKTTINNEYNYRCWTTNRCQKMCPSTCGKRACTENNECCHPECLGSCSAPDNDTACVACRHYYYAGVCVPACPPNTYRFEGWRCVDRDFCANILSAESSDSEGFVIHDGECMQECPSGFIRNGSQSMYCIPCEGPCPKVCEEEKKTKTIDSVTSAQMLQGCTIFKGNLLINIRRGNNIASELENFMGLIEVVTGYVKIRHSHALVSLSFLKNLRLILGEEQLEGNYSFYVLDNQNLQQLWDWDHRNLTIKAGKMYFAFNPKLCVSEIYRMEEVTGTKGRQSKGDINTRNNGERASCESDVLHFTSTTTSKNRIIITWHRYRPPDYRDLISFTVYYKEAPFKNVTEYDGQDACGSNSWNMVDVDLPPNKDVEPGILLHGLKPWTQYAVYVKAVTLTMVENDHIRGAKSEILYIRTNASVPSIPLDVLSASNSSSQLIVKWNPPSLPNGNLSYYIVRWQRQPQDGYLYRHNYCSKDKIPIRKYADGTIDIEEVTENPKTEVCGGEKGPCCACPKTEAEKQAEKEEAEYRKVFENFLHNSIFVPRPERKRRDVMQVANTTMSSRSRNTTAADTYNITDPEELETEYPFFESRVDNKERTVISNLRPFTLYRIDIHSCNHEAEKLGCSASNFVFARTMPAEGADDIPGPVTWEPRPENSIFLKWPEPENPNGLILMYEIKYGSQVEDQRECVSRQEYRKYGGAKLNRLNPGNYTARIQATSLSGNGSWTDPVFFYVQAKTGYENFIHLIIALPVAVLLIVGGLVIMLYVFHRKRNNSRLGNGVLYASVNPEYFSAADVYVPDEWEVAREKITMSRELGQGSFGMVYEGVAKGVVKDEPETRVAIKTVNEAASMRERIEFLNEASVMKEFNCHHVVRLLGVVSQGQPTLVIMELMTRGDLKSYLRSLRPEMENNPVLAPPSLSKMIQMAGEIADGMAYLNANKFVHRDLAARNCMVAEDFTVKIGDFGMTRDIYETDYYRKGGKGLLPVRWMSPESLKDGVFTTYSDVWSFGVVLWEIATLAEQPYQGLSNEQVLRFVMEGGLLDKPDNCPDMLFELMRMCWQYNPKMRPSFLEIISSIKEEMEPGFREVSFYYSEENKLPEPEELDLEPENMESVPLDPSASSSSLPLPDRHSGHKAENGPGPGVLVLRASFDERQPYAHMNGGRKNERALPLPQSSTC

IC50 of inhibition of IGF-1R phosphorylation (antibody dilution started at 100 ug/mL, diluted 1/8): 0.397 µg/mL
B1: Teprotumumab reference antibody (antibody, V domains shown)
VH: QVELVESGGGVVQPGRSQRLSCAASGFTFSSYGMHWVRQAPGKGLEWVAIIWFDGSSTYYADSVRGRFTISRDNSKNTLYLQMNSLRAEDTAVYFCARELGRRYFDLWGRGTLVSVSS
VL: EIVLTQSPATLSLSPGERATLSCRASQSVSSYLAWYQQKPGQAPRLLIYDASKRATGIPARFSGSGSGTDFTLTISSLEPEDFAVYYCQQRSKWPPWTFGQGTKVESK

IC50 of inhibition of IGF-1R phosphorylation (antibody dilution started at 100 ug/mL, diluted 1/8): 0.0205 µg/mL
B2: D03-YTE (clone D03 with the YTE mutation M252Y/S254T/T256E, EU numbering) (antibody, human IgG1, kappa, V domains shown)
VH: B1 VH with Y32H, I50Y
VL: EIVLTQSPATLSLSPGERATLSCRASQSVSSALAWYQQKPGQAPRLLIYDASKRATGIPARFSGSGSGTDFTLTISSLEPEDFAVYYCQQRSKYPPWTFGQGTKVESKR
